From patent US20210340232A1, “MONOCLONAL ANTIBODIES AGAINST HUMAN DICKKOPF3 AND USES THEREOF” (Board of Regents, The University of Texas System, priority 2018, published 2021)

What was measured:
DKK3 = target: T1, DKK3 (Homo sapiens, UniProt Q9UBP4); experiment: Cell surface binding of His-tagged rhDKK3 by flow cytometry; details: BxPC3 or L3.6p1 cells, rhDKK3 10 μg/ml, JM6-6-1 70 μg/ml
T1 construct: purchased R&D
Protocol: FIGS. 11A-C. DKK3 expression in autochthonous model of PDAC and effects of DKK3 mAb on cell surface binding of DKK3 and orthotopic model. (FIG. 11A) DKK3 expression was measured by qPCR in pancreatic tumors from P48-Cre; Kras LSL-G12D;Trp53fl/fl and P48-Cre; Kras LSL-G12D;Trp53fl/+ mice that are either wild type DKK3 or heterozygous or homozygous DKK3-null. Relative expression of DKK3 mRNA in DKK3+/− hetero mice is 53% of DKK3^+/+ mice. (FIG. 11B) DKK3 cell surface binding was assessed by incubating BxPC3 or L3.6p1 cells with His-tagged rhDKK3 (10 μg/ml) with or without JM6-6-1 (70 μg/ml) and positive cells were sorted by flow cytometry. (FIG. 11C) Mice bearing orthotopic BxPC3 tumors were treated with DKK3 mAb JM6-6-1 (5 mg/kg i.p. once every 5 days). Overall tumor progression was measured every 3-4 days by IVIS imaging.
Binding assay. Cell surface binding of DKK3 was performed using flow cytometry. In brief, BxPC3 or L3.6p1 cells (0.5×10^6) were incubated for 30 min with His-labeled rhDKK3 (10 μg/mL) with or without JM6-6-1 (70 μg/mL). After washing with binding buffer (3% BSA in PBS), cells were stained with 1:100 anti-His antibody (abCam) for 30 min and followed by staining with secondary antibody conjugated with Dylight488 for 20 min. The cells were fixed with 2% paraformaldehyde and were subjected to fluorescent signal detection by BD FACSCalibur.

KPC model of PDAC = experiment: Survival of KPC mice (P48-Cre; Kras LSL-G12D;Trp53fl/fl) with wild type DKK3; type: in vivo, mouse
Protocol: HPSCs and BxPC3 cells were treated with DKK3 mAb clones JM6-6-1 and JM8-12-1 or isotype control mAb or PBS. (FIGS. 5A-B) HPSC apoptosis and migration as measured by FACS and Transwell migration assay at 48 hours. (FIG. 5C) BxPC3 migration in response to rhDKK3 10 μg/ml as measured by Transwell migration assay at 48 hours. (FIG. 5D) BxPC3 resistance to gemcitabine 100 μM as measured by MTS proliferation assay at 6 days. HPSC-CM, pancreatic stellate cell conditioned media, 10 μg/ml. The orthotopic co-injection BxPC3+ HPSC model of PDAC was used to test the efficacy of DKK3 mAb clones JM6-6-1 or JM8-12-1 (5 mg/kg i.p. once every 5 days). (FIG. 5E) Overall tumor progression was measured every 3-4 days by IVIS imaging. (FIG. 5F) Metastatic tumors in the peritoneal cavity after removal of the primary pancreatic tumor are shown by IVIS imaging. (FIG. 5G) Kaplan Meier survival curve showing mice treated with DKK3 mAb clone JM8-12 (right-most line), control mAb (middle line), or PBS (left-most line). (FIG. 5H) KPC mice (P48-Cre; Kras LSL-G12D;Trp53fl/fl) with either wild type DKK3 (solid lines) or deficient in DKK3 (“DKK3-KO,” dashed lines) were treated with DKK3 mAb JM6-6-1 (5 mg/kg i.p. once every 5 days), PBS or control mAb. Kaplan Meier survival curve is shown with hazard ratios (Log-rank test). *p<0.05, **p<0.01, ***p<0.001, ****p<0.0001 vs. control Ab.
Two GEMMs of PDAC that differ in the pancreas-specific promoter to target oncogenic Kras expression (Hingorani et al., 2005; Hingorani et al., 2003) were used in the experiments to evaluate the effect of DKK3 neutralizing mAb (Pdx1-Cre; Kras^LSL-G12D; Trp53^R172H/+ and P48-Cre; Kras^LSL-G12D; Trp53^fl/fl). To evaluate the effects of genetic ablation of DKK3 on pancreatic cancer development, DKK3-null mice were crossed to P48-Cre; Kras^LSL-G12D;Trp53^R172H or P48-Cre; Kras^LSL-G12D; Trp53^fl/fl mice (Hingorani et al., 2005; Hingorani et al., 2003), and the progeny were monitored until they were moribund. Tissue and blood samples were collected after the mice were euthanized. […]

[1] = test system: KPC/DKK3-/- model of PDAC; experiment: Survival of KPC/DKK3-/- mice (P48-Cre; Kras LSL-G12D;Trp53fl/fl; dkk3-/-); type: in vivo, mouse
Protocol: HPSCs and BxPC3 cells were treated with DKK3 mAb clones JM6-6-1 and JM8-12-1 or isotype control mAb or PBS. (FIGS. 5A-B) HPSC apoptosis and migration as measured by FACS and Transwell migration assay at 48 hours. (FIG. 5C) BxPC3 migration in response to rhDKK3 10 μg/ml as measured by Transwell migration assay at 48 hours. (FIG. 5D) BxPC3 resistance to gemcitabine 100 μM as measured by MTS proliferation assay at 6 days. HPSC-CM, pancreatic stellate cell conditioned media, 10 μg/ml. The orthotopic co-injection BxPC3+ HPSC model of PDAC was used to test the efficacy of DKK3 mAb clones JM6-6-1 or JM8-12-1 (5 mg/kg i.p. once every 5 days). (FIG. 5E) Overall tumor progression was measured every 3-4 days by IVIS imaging. […]
FIGS. 6A-F. DKK3 blockade is associated with increased tumor immune infiltrates and improves response to checkpoint inhibitor therapy. (FIG. 6A) T cells were stimulated, treated with DKK3 (5-10 μg/mL) and proliferation was measured by CFSE assay. In a syngeneic orthotopic model with luciferase-labeled KPC cells, tumors were examined for CD3 and CD8 expression by IHC (FIG. 6B) and additional markers of T cell activity were measured by quantitative PCR (FIG. 6C). Mice in this model were treated with either control IgG, DKK3 mAb JM6-6-1, αCTLA4 or the combination JM6-6-1+αCTLA4 and tumor growth was measured by IVIS imaging to 25 and 190 days (FIG. 6D). […]

[2] = JM6-6-1 5 mg/kg i.p. once every 5 days

T1 sequence (Q9UBP4 22-350): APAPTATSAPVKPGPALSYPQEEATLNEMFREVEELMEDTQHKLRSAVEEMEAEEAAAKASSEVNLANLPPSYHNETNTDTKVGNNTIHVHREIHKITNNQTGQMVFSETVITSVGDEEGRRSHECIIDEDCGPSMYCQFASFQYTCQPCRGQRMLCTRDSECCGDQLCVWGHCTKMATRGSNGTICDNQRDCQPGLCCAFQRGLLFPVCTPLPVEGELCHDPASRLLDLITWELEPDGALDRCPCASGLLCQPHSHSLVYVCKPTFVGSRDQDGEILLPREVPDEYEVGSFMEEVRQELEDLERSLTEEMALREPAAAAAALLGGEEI

B1: JM6-6-1: monoclonal antibody against human DKK3; heavy chain variable SEQ ID NO: 19, light chain variable SEQ ID NO: 20 (antibody, V domains shown)
VH: EVKLVESGGGLVKPGGSLKLSCAASGFTFTIEYMAWIRQTPEKRLEWVASISSGGDDIYYADNVKGRFTISRDNAKNTLYLQMSSLKSEDTAIYYCSRSLSDWGQGTTLTVSSAKTTPPSDYPLA
VL: MTQTPLSLPVSLGDQASISCRSSQSILHSNGHTYLEWYLQKPGQSPKLLIYKVSNRFSGVPDRFSGSGSGTDFTLKISRVEAEDLGVYYCFQGSHVPFTFGSGTKLEIERADAAQ
blocking of rhDKK3 binding to PDAC cells (DKK3): effective in blocking binding of rhDKK3 to PDAC cells | hazard ratio (HR) compared to PBS or isotype control mAb (KPC model of PDAC; [2]): 0.24 | increase of median survival compared to PBS or isotype control mAb (KPC model of PDAC; [2]): 43% | median survival (KPC model of PDAC; KPC mice with wild type DKK3): 61.5 days | effect on survival compared to PBS or control mAb [1]: no effect on survival | median survival [1]: 58 days
